Assay results taken from PMC9482650, “Quantitative fragmentomics allow affinity mapping of interactomes” (Nature Communications, 2022).

T1: APBA3_1, O96018
T1 sequence (O96018 389-490, limits assumed, looked up): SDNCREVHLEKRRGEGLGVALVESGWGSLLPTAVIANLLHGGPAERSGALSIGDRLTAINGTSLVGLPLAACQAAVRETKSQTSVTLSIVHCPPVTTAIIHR

T2: DLG3_3, Q92796
T2 sequence (Q92796 374-475, limits assumed, looked up): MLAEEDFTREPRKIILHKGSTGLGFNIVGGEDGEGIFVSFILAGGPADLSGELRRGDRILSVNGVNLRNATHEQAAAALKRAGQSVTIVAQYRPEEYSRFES

T3: LNX2_3, Q8N448
T3 sequence (Q8N448 463-564, limits assumed, looked up): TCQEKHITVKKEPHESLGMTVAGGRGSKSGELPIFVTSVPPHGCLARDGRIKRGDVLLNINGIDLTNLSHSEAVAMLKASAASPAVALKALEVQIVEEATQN

T4: LRRC7, Q96NW7
T4 sequence (Q96NW7 1440-1537, limits assumed, looked up): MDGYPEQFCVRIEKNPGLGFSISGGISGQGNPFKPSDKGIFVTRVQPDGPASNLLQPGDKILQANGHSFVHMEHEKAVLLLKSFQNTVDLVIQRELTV

T5: NHERF3_4, Q5T2W1
T5 sequence (Q5T2W1 373-468, limits assumed, looked up): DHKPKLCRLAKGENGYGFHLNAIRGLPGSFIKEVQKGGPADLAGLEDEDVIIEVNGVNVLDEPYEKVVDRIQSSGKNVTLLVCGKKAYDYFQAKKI

T6: PDZD2_2, O15018
T6 sequence (O15018 329-429, limits assumed, looked up): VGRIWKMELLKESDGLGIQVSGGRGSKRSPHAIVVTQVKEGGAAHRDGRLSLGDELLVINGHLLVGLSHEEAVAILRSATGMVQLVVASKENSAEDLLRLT

T7: PDZRN3_1, Q9UPQ7
T7 sequence (Q9UPQ7 244-349, limits assumed, looked up): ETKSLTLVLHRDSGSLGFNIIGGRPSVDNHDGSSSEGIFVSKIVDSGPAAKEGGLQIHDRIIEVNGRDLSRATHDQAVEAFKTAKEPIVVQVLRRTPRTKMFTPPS

T8: SHANK1, Q9Y566
T8 sequence (Q9Y566 658-767, limits assumed, looked up): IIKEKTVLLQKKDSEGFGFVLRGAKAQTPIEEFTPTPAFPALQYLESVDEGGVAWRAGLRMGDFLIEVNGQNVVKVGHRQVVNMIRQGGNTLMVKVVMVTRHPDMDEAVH

T9: SIPA1L2, Q9P2F8
T9 sequence (Q9P2F8 945-1036, limits assumed, looked up): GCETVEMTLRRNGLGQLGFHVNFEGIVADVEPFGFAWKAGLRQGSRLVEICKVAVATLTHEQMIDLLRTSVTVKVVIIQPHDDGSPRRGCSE


Experiments:
Assay in all cases: holdup assay
Parameters in all cases: key: below the threshold = too weak to quantify, mostly under pKd 3.1 to 4
Conditions in all cases: plain residues with an end cap or a label only (N-terminal biotin on a linker: ado-ado)
AHNAK1, Q09666 = biological target: AHNAK1, Q09666
Chain of AHNAK1, Q09666 (Q09666 4-100): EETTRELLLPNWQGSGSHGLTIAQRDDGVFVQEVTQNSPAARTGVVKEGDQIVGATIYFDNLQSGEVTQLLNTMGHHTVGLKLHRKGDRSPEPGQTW

APBA3_1, O96018 = biological target: T1, APBA3_1, O96018
DLG3_3, Q92796 = biological target: T2, DLG3_3, Q92796
DLG4_3, P78352 = biological target: DLG4_3, P78352
Chain of DLG4_3, P78352 (P78352 306-403): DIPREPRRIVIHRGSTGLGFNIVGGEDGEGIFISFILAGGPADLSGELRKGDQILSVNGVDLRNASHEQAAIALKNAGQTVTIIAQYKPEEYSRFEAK

DLG5_1, Q8TDM6 = biological target: DLG5_1, Q8TDM6
Chain of DLG5_1, Q8TDM6 (Q8TDM6 617-713): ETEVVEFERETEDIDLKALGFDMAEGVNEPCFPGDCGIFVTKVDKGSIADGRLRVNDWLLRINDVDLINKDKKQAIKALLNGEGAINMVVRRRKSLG

FRMPD2_3, Q68DX3 = biological target: FRMPD2_3, Q68DX3
Chain of FRMPD2_3, Q68DX3 (Q68DX3 1073-1166): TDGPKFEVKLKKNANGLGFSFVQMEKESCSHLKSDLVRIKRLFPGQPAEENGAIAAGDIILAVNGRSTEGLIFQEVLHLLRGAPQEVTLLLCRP

FRMPD4, Q14CM0 = biological target: FRMPD4, Q14CM0
Chain of FRMPD4, Q14CM0 (Q14CM0 67-160): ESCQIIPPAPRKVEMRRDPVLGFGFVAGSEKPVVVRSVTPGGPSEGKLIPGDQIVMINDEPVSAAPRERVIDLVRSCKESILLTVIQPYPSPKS

GIPC2, Q8TF65 = biological target: GIPC2, Q8TF65
Chain of GIPC2, Q8TF65 (Q8TF65 112-203): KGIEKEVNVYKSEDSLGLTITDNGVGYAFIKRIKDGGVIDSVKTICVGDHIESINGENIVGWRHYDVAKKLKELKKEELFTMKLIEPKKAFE

GORASP1, Q9BQQ3 = biological target: GORASP1, Q9BQQ3
Chain of GORASP1, Q9BQQ3 (Q9BQQ3 1-208): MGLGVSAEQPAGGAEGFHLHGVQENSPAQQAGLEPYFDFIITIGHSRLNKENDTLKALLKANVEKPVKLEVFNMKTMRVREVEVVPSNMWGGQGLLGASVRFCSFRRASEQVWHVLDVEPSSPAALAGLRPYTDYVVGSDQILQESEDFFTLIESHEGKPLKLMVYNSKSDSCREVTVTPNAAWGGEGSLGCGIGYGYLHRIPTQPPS

GRID2IP_2, A4D2P6 = biological target: GRID2IP_2, A4D2P6
Chain of GRID2IP_2, A4D2P6 (A4D2P6 272-370): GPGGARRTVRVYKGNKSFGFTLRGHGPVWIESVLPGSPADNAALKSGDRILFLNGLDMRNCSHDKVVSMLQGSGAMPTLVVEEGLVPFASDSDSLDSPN

IL16_3, Q14005 = biological target: IL16_3, Q14005
Chain of IL16_3, Q14005 (Q14005 1107-1207): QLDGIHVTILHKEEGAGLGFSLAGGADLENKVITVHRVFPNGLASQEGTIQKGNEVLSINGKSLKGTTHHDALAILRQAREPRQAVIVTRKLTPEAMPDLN

Inadl_1, Q8NI35 = biological target: Inadl_1, Q8NI35
Chain of Inadl_1, Q8NI35 (Q8NI35 113-229): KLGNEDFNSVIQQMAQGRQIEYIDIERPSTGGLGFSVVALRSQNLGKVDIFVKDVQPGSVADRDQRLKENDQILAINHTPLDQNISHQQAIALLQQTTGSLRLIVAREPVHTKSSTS

Inadl_4, Q8NI35 = biological target: Inadl_4, Q8NI35
Chain of Inadl_4, Q8NI35 (Q8NI35 547-651): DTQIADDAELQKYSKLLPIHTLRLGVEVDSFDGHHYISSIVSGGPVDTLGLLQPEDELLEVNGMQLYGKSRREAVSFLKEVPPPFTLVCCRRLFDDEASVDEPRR

Inadl_5, Q8NI35 = biological target: Inadl_5, Q8NI35
Chain of Inadl_5, Q8NI35 (Q8NI35 673-780): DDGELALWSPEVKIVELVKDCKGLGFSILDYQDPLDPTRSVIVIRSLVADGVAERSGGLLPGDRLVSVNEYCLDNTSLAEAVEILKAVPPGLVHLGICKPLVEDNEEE

Inadl_9, Q8NI35 = biological target: Inadl_9, Q8NI35
Chain of Inadl_9, Q8NI35 (Q8NI35 1530-1615): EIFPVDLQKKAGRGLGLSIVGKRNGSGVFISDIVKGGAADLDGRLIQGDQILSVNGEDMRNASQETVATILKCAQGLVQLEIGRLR

LIMK2, P53671 = biological target: LIMK2, P53671
Chain of LIMK2, P53671 (P53671 143-248): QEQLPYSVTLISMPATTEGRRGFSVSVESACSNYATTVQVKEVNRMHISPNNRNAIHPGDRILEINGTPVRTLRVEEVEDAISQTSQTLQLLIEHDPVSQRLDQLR

LNX1_3, Q8TBB1 = biological target: LNX1_3, Q8TBB1
Chain of LNX1_3, Q8TBB1 (Q8TBB1 500-596): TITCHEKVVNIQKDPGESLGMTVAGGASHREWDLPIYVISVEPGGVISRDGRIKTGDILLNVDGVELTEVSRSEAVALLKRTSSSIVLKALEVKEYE

LNX2_3, Q8N448 = biological target: T3, LNX2_3, Q8N448
LRRC7, Q96NW7 = biological target: T4, LRRC7, Q96NW7
MAGI1_2, Q96QZ7 = biological target: MAGI1_2, Q96QZ7
Chain of MAGI1_2, Q96QZ7 (Q96QZ7 456-580): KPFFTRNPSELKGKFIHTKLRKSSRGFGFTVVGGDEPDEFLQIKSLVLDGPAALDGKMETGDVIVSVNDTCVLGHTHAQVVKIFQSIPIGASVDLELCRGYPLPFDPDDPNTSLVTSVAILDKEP

NHERF3_4, Q5T2W1 = biological target: T5, NHERF3_4, Q5T2W1
NHERF4_4, Q86UT5 = biological target: NHERF4_4, Q86UT5
Chain of NHERF4_4, Q86UT5 (Q86UT5 464-550): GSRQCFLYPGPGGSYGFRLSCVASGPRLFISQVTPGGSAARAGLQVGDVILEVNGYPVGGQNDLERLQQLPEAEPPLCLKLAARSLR

NOS1, P29475 = biological target: NOS1, P29475
Chain of NOS1, P29475 (P29475 9-101): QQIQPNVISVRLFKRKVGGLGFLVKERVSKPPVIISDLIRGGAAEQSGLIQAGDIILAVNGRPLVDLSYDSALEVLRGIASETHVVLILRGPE

PDZD2_2, O15018 = biological target: T6, PDZD2_2, O15018
PDZRN3_1, Q9UPQ7 = biological target: T7, PDZRN3_1, Q9UPQ7
SHANK1, Q9Y566 = biological target: T8, SHANK1, Q9Y566
SIPA1L2, Q9P2F8 = biological target: T9, SIPA1L2, Q9P2F8
SNX27, Q96L92 = biological target: SNX27, Q96L92
TJP1_3, Q07157 = biological target: TJP1_3, Q07157
Chain of TJP1_3, Q07157 (Q07157 416-512): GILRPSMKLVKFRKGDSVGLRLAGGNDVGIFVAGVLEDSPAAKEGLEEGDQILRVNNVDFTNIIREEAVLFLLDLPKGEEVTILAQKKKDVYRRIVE

Binder | pKd (AHNAK1, Q09666) | pKd (APBA3_1, O96018) | pKd (DLG3_3, Q92796) | pKd (DLG4_3, P78352) | pKd (DLG5_1, Q8TDM6) | pKd (FRMPD2_3, Q68DX3) | pKd (FRMPD4, Q14CM0) | pKd (GIPC2, Q8TF65) | pKd (GORASP1, Q9BQQ3) | pKd (GRID2IP_2, A4D2P6) | pKd (IL16_3, Q14005) | pKd (Inadl_1, Q8NI35) | pKd (Inadl_4, Q8NI35) | pKd (Inadl_5, Q8NI35) | pKd (Inadl_9, Q8NI35) | pKd (LIMK2, P53671) | pKd (LNX1_3, Q8TBB1) | pKd (LNX2_3, Q8N448) | pKd (LRRC7, Q96NW7) | pKd (MAGI1_2, Q96QZ7) | other results
QSPPNIYYKV [EFNB3, Q15768] | below the threshold | below the threshold | 3.56 | below the threshold | below the threshold | below the threshold | 4.01 | below the threshold | 4.75 | below the threshold | below the threshold | 3.99 | 3.51 | below the threshold | 3.53 | below the threshold | 4.47 | below the threshold | below the threshold | below the threshold | pKd (NHERF3_4, Q5T2W1): 3.54; pKd (NHERF4_4, Q86UT5): below the threshold; pKd (NOS1, P29475): 3.53; pKd (PDZD2_2, O15018): 3.67; pKd (PDZRN3_1, Q9UPQ7): below the threshold; pKd (SHANK1, Q9Y566): below the threshold; pKd (SIPA1L2, Q9P2F8): below the threshold; pKd (SNX27, Q96L92): 3.89; pKd (TJP1_3, Q07157): below the threshold
ANGLMQTSKL [SSTR5, P35346] | below the threshold | below the threshold | below the threshold | below the threshold | below the threshold | below the threshold | 3.69 | below the threshold | below the threshold | 4.48 | below the threshold | below the threshold | below the threshold | below the threshold | below the threshold | below the threshold | below the threshold | below the threshold | below the threshold | below the threshold | pKd (NHERF3_4, Q5T2W1): 4.76; pKd (NHERF4_4, Q86UT5): below the threshold; pKd (NOS1, P29475): below the threshold; pKd (PDZD2_2, O15018): below the threshold; pKd (PDZRN3_1, Q9UPQ7): below the threshold; pKd (SHANK1, Q9Y566): 4.65; pKd (SIPA1L2, Q9P2F8): below the threshold; pKd (SNX27, Q96L92): 5.52; pKd (TJP1_3, Q07157): below the threshold

Further lines, with some results ahead:

pKd (AHNAK1, Q09666) | pKd (APBA3_1, O96018) | pKd (DLG3_3, Q92796) | pKd (DLG4_3, P78352) | pKd (DLG5_1, Q8TDM6) | pKd (FRMPD2_3, Q68DX3) | pKd (FRMPD4, Q14CM0) | pKd (GIPC2, Q8TF65) | pKd (GORASP1, Q9BQQ3) | pKd (GRID2IP_2, A4D2P6) | pKd (IL16_3, Q14005) | pKd (Inadl_1, Q8NI35) | pKd (Inadl_4, Q8NI35) | pKd (Inadl_5, Q8NI35) | pKd (Inadl_9, Q8NI35) | pKd (LIMK2, P53671) | pKd (LNX1_3, Q8TBB1) | pKd (LNX2_3, Q8N448) | pKd (LRRC7, Q96NW7) | pKd (MAGI1_2, Q96QZ7) | Binder | other results
below the threshold | below the threshold | below the threshold | below the threshold | below the threshold | 3.57 | below the threshold | 3.54 | below the threshold | below the threshold | below the threshold | below the threshold | below the threshold | below the threshold | 3.63 | below the threshold | below the threshold | below the threshold | below the threshold | below the threshold | ETSLVKGIDI [DENND5A, Q6IQ26] | pKd (NHERF3_4, Q5T2W1): below the threshold; pKd (NHERF4_4, Q86UT5): 3.87; pKd (NOS1, P29475): 3.52; pKd (PDZD2_2, O15018): 4; pKd (PDZRN3_1, Q9UPQ7): below the threshold; pKd (SHANK1, Q9Y566): below the threshold; pKd (SIPA1L2, Q9P2F8): below the threshold; pKd (SNX27, Q96L92): below the threshold; pKd (TJP1_3, Q07157): below the threshold
below the threshold | below the threshold | 4.47 | 4.33 | below the threshold | below the threshold | below the threshold | below the threshold | 4.86 | 4.97 | below the threshold | below the threshold | below the threshold | 4.34 | 4.11 | below the threshold | below the threshold | below the threshold | below the threshold | 4.71 | NASRTRITFV [MCM7, P33993] | pKd (NHERF3_4, Q5T2W1): 3.53; pKd (NHERF4_4, Q86UT5): below the threshold; pKd (NOS1, P29475): 3.84; pKd (PDZD2_2, O15018): 4.7; pKd (PDZRN3_1, Q9UPQ7): 3.89; pKd (SHANK1, Q9Y566): below the threshold; pKd (SIPA1L2, Q9P2F8): below the threshold; pKd (SNX27, Q96L92): 4.85; pKd (TJP1_3, Q07157): below the threshold
